The supplement of paper PMC9170038

System: MS2 coat protein
Test: apparent KD of MS2 coat protein; designed switch direction (-1 OFF switch, 1 ON switch): -1; higher = weaker reporter binding
Outline: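 Designed RNA switches with common flanks were transcribed on Illumina chips by stalled E. coli RNA polymerase and titrated with SNAP-549-labelled MS2 coat protein, from 0.7 or 1.5 nM doubling to 3 µM, in Tris-HCl pH 7.5 buffer with KCl, MgCl2, BSA, DTT, tRNA and Tween-20. Steps lasted 0.8–1.5 h (lowest) to 10–20 min (highest). Titrations ran without input, with 200 uM small-molecule ligand, or with an oligonucleotide input. Normalised cluster fluorescence was curve-fitted, and apparent KD is the per-design median over clusters.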

[1] = Eterna round: R95, input ligand: FMN 200 uM
[2] = Eterna round: R95, input ligand: microRNA oligo, concentration not stated
[3] = Eterna round: R95, input ligand: none
[4] = input ligand: microRNA oligo, concentration not stated

Sequence	apparent KD of MS2 coat protein [1]	apparent KD of MS2 coat protein [2]	apparent KD of MS2 coat protein [3]	apparent KD of MS2 coat protein (input ligand: FMN 200 uM)	apparent KD of MS2 coat protein (input ligand: none)	apparent KD of MS2 coat protein [4]
CUGAGGUAGCGGUCCUAUGACAUGAGGAUCACCCAUGUACCUUGCUUCGAGCUUUUUGCUCGUCUUAUGAUUCUCGG [JL Atriat mod 5] (puzzle: Sensor v3, turn-off variant 1)	486 nM	456 nM	576 nM	–	–	–
CUGAGGUAGCGGUCCUAUGACAUGAGGAUCACCCAUGUACCUUGCUUUGAGCUUAUUGCUCGUCUUAUGAUUCUCGG [Mat - Sensor v3 - turn-off var 1 - JL Mod - D41] (puzzle: Sensor v3, turn-off variant 1)	399 nM	299 nM	460 nM	–	–	–
CUGAGGUAGCGGUCCUAUGACAUGAGGAUCACCCAUGUACCUUGCUUUGAGCUUUAUGCUCGUCUUAUGAUUCUCGG [Mat - Sensor v3 - turn-off var 1 - JL Mod - D42] (puzzle: Sensor v3, turn-off variant 1)	585 nM	537 nM	546 nM	–	–	–
CUGAGUAUAGGAUAUACAUGAGGAUCACCCAUGUAGAAACAAGGGUCUUACAACUAAAGUAGAAGGAUAUUUGG [ExFusion 7 - Jieux - Exclusion 3] (Eterna round: R97, puzzle: Exclusion 3)	–	–	–	112 nM	48.2 nM	–
CUGAGUCAAGGAUAUACAUGAGGAUCACCCAUGUAAAGUAGCUUGCGUACAGGCAGAUGUAGAAGGUGAUUCGG [Mod of JL 9 - Jieux - Exclusion 3] (Eterna round: R97, puzzle: Exclusion 3)	–	–	–	100 nM	90.7 nM	–
CUGAUGUCAGGAUAUCAGAAAAGGUGCAAGGACGCACCAAAUGAGAAGGGACAUGAGGAUCACCCAUGUAAAAC [Maqucema] (puzzle: Exclusion 4)	–	25.4 nM	–	–	–	–
CUGCUCCGUGUAGGAUAUCCAUGCAACCAAUAUGGAGAAGGACAUGAGGAUCACCCAUGUAUGUUAUUAUCACGUGAAGCGUCC [Design 23] (Eterna round: R96, puzzle: Exclusion NG 1)	–	–	–	28.6 nM	31.2 nM	24 nM
CUGCUCCGUGUAGGAUAUCCCGGCAACCAAUCGGGAGAAGGACAUGAGGAUCACCCAUGUAUGUUAUUAUCACGUGAAGCGUCC [Design 27] (Eterna round: R96, puzzle: Exclusion NG 1)	–	–	–	–	–	16.3 nM
CUGCUCCGUGUAGGAUAUCCGGGCAACCAAUCCGGAGAAGGACAUGAGGAUCACCCAUGUAUGUUAUUAUCACGUGAAGCGUCC [Design 25] (Eterna round: R96, puzzle: Exclusion NG 1)	–	–	–	–	–	15.6 nM
CUGCUCCGUGUAGGAUAUGCAUACUCCCACUAUGCAGAAGGACAUGAGGAUCACCCAUGUAUGUUAUUAUCACGUGUAGCGUAC [Design 16] (Eterna round: R96, puzzle: Exclusion NG 1)	–	–	–	–	–	21.7 nM
CUGCUCCGUGUAGGAUAUGCAUACUCCCAUUAUGCAGAAGGACAUGAGGAUCACCCAUGUAUGUUAUUAUCACGUGUUGCGUAC [Design 14] (Eterna round: R96, puzzle: Exclusion NG 1)	–	–	–	–	–	20 nM
CUGCUGGAGCGGUGCUUUGGUCGUACAUGAGGAUCACCCAUGUAGGAUAUGGUAAAAUUUGCUUGCUAGAAGGAUAGAGUGGUC [salish99_ExNG3_r04_614] (Eterna round: R96, puzzle: Exclusion NG 3)	–	–	–	96.9 nM	61.3 nM	42.4 nM
CUGGUCCGAGGAUAUAUUAAGUGAAACAUGAGGAUCACCCAUGUUAUUUGAUGGAUGAAAAUAGAAGGCGGACUAG [Mat - Exclusion 5 - JL mod - D58] (puzzle: Exclusion 5)	22.9 nM	41.1 nM	45.2 nM	–	–	–
CUGGUCCGAGGAUAUAUUAAGUGAUACAUGAGGAUCACCCAUGUAAUUUAAUGGAUGUAAAUAGAAGGCGGACUAG [JL-ex5-3.11] (puzzle: Exclusion 5)	43.2 nM	39.7 nM	38.7 nM	–	–	–
CUGGUCCGAGGAUAUAUUAUGUGAAACAUGAGGAUCACCCAUGUAAUAUGAUGGAUAUAAAUAGAAGGCGGACUAG [Mat - Exclusion 5 - JL mod - D31] (puzzle: Exclusion 5)	22.4 nM	19.9 nM	31.1 nM	–	–	–
CUGGUCCGAGGAUAUAUUAUGUGAAACAUGAGGAUCACCCAUGUAAUAUGAUGGAUGUAAAUAGAAGGCGGACUAG [JL-ex5-3.07] (puzzle: Exclusion 5)	38.2 nM	37.3 nM	47.2 nM	–	–	–
CUGGUCCGAGGAUAUAUUUUGUGAAACAUGAGGAUCACCCAUGUAAUAAAAUGGAAAUAAAUAGAAGGCGGACUAG [Mat - Exclusion 5 - JL mod - D42] (puzzle: Exclusion 5)	25.2 nM	20.8 nM	24.2 nM	–	–	–

Sequence	apparent KD of MS2 coat protein [1]	apparent KD of MS2 coat protein [2]	apparent KD of MS2 coat protein [3]	apparent KD of MS2 coat protein (input ligand: FMN 200 uM)	apparent KD of MS2 coat protein (input ligand: none)	apparent KD of MS2 coat protein [4]
CUGGUCCGAGGAUAUAUUUUGUGAAACAUGAGGAUCACCCAUGUAAUAAAAUGGAUGUAAAUAGAAGGCGGACUAG [Mat - Exclusion 5 - JL mod - D40] (puzzle: Exclusion 5)	26.7 nM	29 nM	30 nM	–	–	–
CUGGUGUGAGGAUAUCAAAGACCUCGGUAAAGAACCGAGGAUGAGAAGGCACAUGAGGAUCACCCAUGUAACAA [Lauscege] (puzzle: Exclusion 4)	–	22.6 nM	–	–	–	–
CUGGUGUGAGGAUAUCAGGACACAUCCGCGGGCGUGUCAAAUGAGAAGGCACAUGAGGAUCACCCAUGUGGGAC [Onquveatge] (puzzle: Exclusion 4)	57.1 nM	44.2 nM	53.2 nM	–	–	–
CUGUAGCUACAAGCUUUUUGCACGUCAGGUAGUGACGCAACAUGAGGAUCACCCAUGUAUAGGGUGGGACAGGAUAG [JR_SV3TOV2_Sub049] (puzzle: Sensor v3, turn-off variant 2)	443 nM	153 nM	495 nM	–	–	–
CUGUGCACGCUGCGAUCCUACAUGAGGAUCACCCAUGUGGUCUGGUGGCGUGGGUCACCGGACUUGGCUCGUCUUGA [salish99_S_TOV1_R5_070] (Eterna round: R97, puzzle: Sensor, turn-off variant 1)	–	–	–	147 nM	156 nM	–
CUGUGUAGACAGGAUAUGCUGUACAAAAGUACAGCAGAAGGGUCUACAUGAGGAUCACCCAUGUAUACCUCAUG [)mei Ex6 B25] (Eterna round: R97, puzzle: Exclusion 6)	–	–	–	735 nM	88.8 nM	–
CUGUGUCCGCAGGAUAUGUCAUCCUGAAGGAUCACAGAAGGGCGGACAUGAGGAUCACCCAUGUGAGCCAAAGA [EX6 A.11] (Eterna round: R97, puzzle: Exclusion 6)	–	–	–	16.7 nM	17.9 nM	–
CUGUUCCGUGUAGGAUAUGCAUAUUCUCAUUAUGCAGAAGGACAUGAGGAUCACCCAUGUAUGUUAUUAUCAUGUGUUACAUGU [Design 6] (Eterna round: R96, puzzle: Exclusion NG 1)	–	–	–	–	–	22.4 nM
CUGUUUUCCGCAGGAUAUGCUCCUCCAUUACUAGCAGAAGGGCGUUGAACAUGAGGAUCACCCAUGUAUGUAAUUGCUUAUUGC [JR_ExcNG1_Sub072] (Eterna round: R96, puzzle: Exclusion NG 1)	–	–	–	19.2 nM	19.4 nM	14.6 nM
CUUAAGGCAGGAUAUGCUUUUUGUGACAUGAGGAUCACCCAUGUGAUGCAGUUUGGGUUUGCAGAAGGGCCUGAGU [JR_E5_Sub034] (puzzle: Exclusion 5)	–	82.6 nM	–	–	–	–
CUUAAGUCAGGAUAUCAGGAGCAAGCUUAACGGGCACUCGCUGAGAAGGGACAUGAGGAUCACCCAUGUGCUCG [Eternabot (L2) Solution 17] (Eterna round: R97, puzzle: Exclusion 4)	–	–	–	52.3 nM	24.7 nM	–
CUUAAUUGUCAGAUGGGUGACAUGAGGAUCACCCAUGUCACAAGCUUUUUGUUCGUCUUAUAAUUAACCCAUCUGAC [Stov1/11-B3] (Eterna round: R97, puzzle: Sensor, turn-off variant 1)	–	–	–	14.5 nM	12.3 nM	–
CUUAGACAUGAGGAUCACCCAUGUGAGGAUAUGAAAUGAAUUAAGUAUGAAGUAUGAAUCAGAAGGCACAUAUG [Mat - Mod of Hyphema D33] (puzzle: Exclusion 1)	63 nM	95.8 nM	107 nM	–	–	–
CUUAGACAUGAGGAUCACCCAUGUGAGGAUAUGAAAUUAAUUAAUUAUUAAUUAUGAAUCAGAAGGCACAUAUG [Mat - Mod of Hyphema D37] (puzzle: Exclusion 1)	121 nM	47.9 nM	50.9 nM	–	–	–
CUUAGCCUAAAAUCACGCAAGCUUUUUGCUUGUCUUAAGACAUGAGGAUCACCCAUGUCCGGGCUGAACUUAUGUAA [Laantiusan] (puzzle: Sensor v3, turn-off variant 2)	22.7 nM	30.9 nM	26.4 nM	–	–	–
CUUAUGUGAGGAUAUCAGUAGUAAUACAAUAGUAUUACUACUGAGAAGGCACAUGAGGAUCACCCAUGUUCCUU [Exclusion 4 - Mod Omei Ex4 344 mod v.1] (puzzle: Exclusion 4)	–	27.5 nM	–	–	–	–
CUUAUGUGAGGAUAUGCCUGGCCGUGAGGCCAAAUUGAUAAGCAGAAGGCACAUGAGGAUCACCCAUGUGCGGG [jl-ex4-4.68 ViennaUCT mod] (Eterna round: R97, puzzle: Exclusion 4)	–	–	–	112 nM	241 nM	–
